Assay [1] has as its target human NKG2A/CD94 on the cell surface (CHOk1-hNKG2A/CD94 stable cell line) (human) (UniProt P26715). Put plainly: FACS on CHOK1-hNKG2A/CD94 cells, Alexa 488 secondary antibody.
For assay [2] the target is unchanged. Briefly: FACS blocking assay: HLA-E-PE binding to CHOk1-hNKG2A/CD94 cells in the presence of the antibody.
For assay [3] the target is unchanged. Put plainly: FACS on CHOK1-hNKG2A/CD94 cells.

For orientation: EC50 (read off the curve) means the concentration at which the effect is half-maximal.

B1: Mab033 (antibody, V domains shown)
VH: EVQLQQSVAEFVRPGASVRLSCTASGFNIENTYIHWLKQRPEQGLEWIGRIDPANGDTQYDPKFQGKATLTAATSSNTAYLQLSGLTSEDTAIYYCTRYGDYLFYYSLKYWGQGTSVTVSS
VL: DIVMTQAAPSVSVTPGESVSISCRSSKSLLHSNGNTYLYWFLQRPGQSPQLLIYRMSNLASGVPDRFSGSGSGTAFTLRISRVEAEDVGVYYCMQHLESPYTFGGGTKLEIK
B1 showed an EC50 (read off the curve) in assay [1] of 0.8 nM. The IC50 (read off the curve) in assay [2] came to 1 nM.

B2: Mpb416 (antibody, V domains shown)
VH: QVQLQQSVAELVRPGASVKLSCTASGFNIQNTYIHWVKQRPEQGLEWIGKIDPANGDTKYAPTFQGKATITADTSSNTAYLQLSSLTPEDTAIYYCARYRDYLFYYALGYWGQGTSVTVSS
VL: DIVMTQSAPSVPVTPGESVSISCRSSKSLLHSNGNTYLYWFLQRPGQSPQLLIYRMSNLASGVPDRFSGSGSGTAFTLRISRVEAEDVGVYYCMQHLEYPYTFGGGTKLEIK
For B2, in assay [1], the EC50 (read off the curve) worked out at 0.7 nM. This lies in the sub-nanomolar range.

B3: Mab032 (antibody, V domains shown)
VH: EVQLQQSVAELVRPGASVRLSCTGSGFNIENTYMHWLKQRPEQGLEWIGRIDPADGDTQYAPKFQGKATITTDTSSNTAYLQLSSLTSEDTAIYYCARYGNYLFYYSMDYWGQGTSVTVSS
VL: DIVMTQAAPSVPVTPGESVSISCRSSKSLLHSNGNTYLYWFLQRPGQSPQLLIYRMSNLASGVPDRFSGSGSATAFTLRISRVEAEDVGIYYCMQHLEYPYTFGGGTKLEIK
Molecule B3 gave an EC50 (read off the curve) in assay [1] of 0.8 nM. For the same molecule, in assay [2], the IC50 (read off the curve) came to 1 nM.

B4: Mab031 (antibody, V domains shown)
VH: EVQLQQSVAELVRPGASVRLSCTGSGFNIQNTYIHWVKQRPEQGLEWIGRIDPANGDTKYAPKFQGKATITADTSSNTAYLQLSSLTSEDTAIYYCTRYGNYLYYYSLDYWGQGTSVTVSS
VL: DIVMTQAAPSVPVTPGESVSISCRSSKSLLHSNGNTYLYWFLQRPGQSPQLLIYRMSNLASGVPDRFSGSGSGTAFTLRISRVEAEDMGVYYCMQHLEYPYTFGGGTKLEIK
In turn, B4 came in with an EC50 (read off the curve) in assay [1] of 0.8 nM. Further, the IC50 (read off the curve) in assay [2] was determined as 1 nM.

B5: M15 (antibody, V domains shown)
VH: QVQLQQSVAELVRPGASVKLSCTASGFNIQNTYIHWVKQRPEQGLEWIGKIDPANADTKYAPTFQGKATITADTSSNTAYLQLSSLTPEDTAIYYCARYRDYLFYYALGYWGQGTSVTVSS
VL: DIVMTQSAPSVPVTPGESVSISCRSSKSLLHSNANTYLYWFLQRPGQSPQLLIYRMSNLASGVPDRFSGSGSGTAFTLRISRVEAEDVGVYYCMQHLEYPYTFGGGTKLEIK
For B5, the EC50 (read off the curve) in assay [3] was determined as 0.8 nM.

B6: M15-5 (antibody, V domains shown)
VH: QVQLVQSGAEVKKPGASVKVSCKASGFNIQNTYIHWVKQAPGQGLEWIGKIDPANADTKYAPTFQGRATITADTSTNTAYLELSSLRSEDTAVYYCARYRDYLFYYALGYWGQGTTVTVSS
VL: DIVMTQSPLSLPVTPGEPASISCRSSKSLLHSNANTYLYWYLQKPGQSPQLLIYRMSNLASGVPDRFSGSGSGTDFTLKISRVEAEDVGVYYCMQHLEYPYTFGQGTKLEIK
B6 had an EC50 (read off the curve) in assay [3] of 1 nM.

Source of the values: patent US20220259306A1.
